Numbering of substitutions follows the chain as printed.
T1: BCMA on cells (JEKO cells, plasmablasts) (human, UniProt Q02223 1-184)
T1 sequence (looked up): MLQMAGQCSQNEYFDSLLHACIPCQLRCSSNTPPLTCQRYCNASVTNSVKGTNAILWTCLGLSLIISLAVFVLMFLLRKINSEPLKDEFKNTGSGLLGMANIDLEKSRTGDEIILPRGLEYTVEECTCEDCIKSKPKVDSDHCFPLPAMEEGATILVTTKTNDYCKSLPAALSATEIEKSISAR

T2: Human BCMA, TPP208 (human, UniProt Q02223 1-54, limits assumed)
T2 construct: also called Antigen 1
T2 sequence (looked up): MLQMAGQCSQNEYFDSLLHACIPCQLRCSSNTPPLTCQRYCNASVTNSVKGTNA

T3: BCMA (human, UniProt Q02223 1-54, limits assumed)
T3 construct: also called B cell maturation antigen; TNFRSF17
T3 sequence (looked up): T2 sequence (looked up)

B1: Mab101 (bispecific antibody, human IgG1, L234A L235A)
heavy 1: not shown
heavy 2: not shown
light 1: not shown
light 2: EVQLLESGGGLVQPGGSLRLSCAASGFTFSTYAMNWVRQAPGKGLEWVSRIRSKYNNYATYYADSVKGRFTISRDDSKNTLYLQMNSLRAEDTAVYYCVRHGNFGNSYVSWFAYWGQGTLVTVSSASVAAPSVFIFPPSDEQLKSGTASVVCLLNNFYPREAKVQWKVDNALQSGNSQESVTEQDSKDSTYSLSSTLTLSKADYEKHKVYACEVTHQGLSSPVTKSFNRGEC
notes: also called BCMA TCE; BCMA T cell engager
B2: CC-93269 (bispecific antibody, human IgG1, kappa, L234A L235A)
heavy 1: not shown
heavy 2: EVQLLESGGGLVQPGGSLRLSCAASGFTFSDNAMGWVRQAPGKGLEWVSAISGPGSSTYYADSVKGRFTISRDNSKNTLYLQMNSLRAEDTAVYYCAKVLGWFDYWGQGTLVTVSSASTKGPSVFPLAPSSKSTSGGTAALGCLVEDYFPEPVTVSWNSGALTSGVHTFPAVLQSSGLYSLSSVVTVPSSSLGTQTYICNVNHKPSNTKVDEKVEPKSCDKTHTCPPCPAPEAAGGPSVFLFPPKPKDTLMISRTPEVTCVVVDVSHEDPEVKFNWYVDGVEVHNAKTKPREEQYNSTYRVVSVLTVLHQDWLNGKEYKCKVSNKALGAPIEKTISKAKGQPREPQVCTLPPSRDELTKNQVSLSCAVKGFYPSDIAVEWESNGQPENNYKTTPPVLDSDGSFFLVSKLTVDKSRWQQGNVFSCSVMHEALHNHYTQKSLSLSPGK
light 1: EIVLTQSPGTLSLSPGERATLSCRASQSVSDEYLSWYQQKPGQAPRLLIHSASTRATGIPDRFSGSGSGTDFTLAISRLEPEDFAVYYCQQYGYPPDFTFGQGTKVEIKRTVAAPSVFIFPPSDRKLKSGTASVVCLLNNFYPREAKVQWKVDNALQSGNSQESVTEQDSKDSTYSLSSTLTLSKADYEKHKVYACEVTHQGLSSPVTKSFNRGEC
light 2: B1 light 2
notes: also called 42-TCBcv; BCMA TCE
B3: 22-TCBcv (bispecific antibody, human IgG1, kappa, L234A L235A)
heavy 1: not shown
heavy 2: B2 heavy 2
light 1: B2 light 1 with D31S, E32Y, S35A, H50S, S51G, S53G, T54S, A75T
light 2: B1 light 2
B4: Mab102 (bispecific antibody, human IgG1, L234A L235A)
heavy 1: EVQLLESGGGLVQPGGSLRLSCAASGFTFSDNAMGWVRQAPGKGLEWVSAISGPGSSTYYADSVKGRFTISRDNSKNTLYLQMNSLRAEDTAVYYCAKVLGWFDYWGQGTLVTVSSASTKGPSVFPLAPSSKSTSGGTAWLGCEVTDYFPEPVTVSWNSGALTSGVHTFPAVLESSGLYSLSSVVTVPSSSLGTQTYICNVNHKPSNTKVDKKVEPKSCDKTHTCPPCPAPEAAGGPSVFLFPPKPKDTLMISRTPEVTCVVVDVSHEDPEVKFNWYVDGVEVHNAKTKPREEQYNSTYRVVSVLTVLHQDWLNGKEYKCKVSNKALGAPIEKTISKAKGQPREPQVYVYPPSREEMTKNQVSLTCLVKGFYPSDIAVEWESNGQPENNYKTTPPVLDSDGSFALVSKLTVDKSRWQQGNVFSCSVMHEALHNHYTQKSLSLSPG
heavy 2: EVQLLESGGGLVQPGGSLRLSCAASGFTFSDNAMGWVRQAPGKGLEWVSAISGPGSSTYYADSVKGRFTISRDNSKNTLYLQMNSLRAEDTAVYYCAKVLGWFDYWGQGTLVTVSSASTKGPSVFPLAPSSKSTSGGTAWLGCEVTDYFPEPVTVSWNSGALTSGVHTFPAVLESSGLYSLSSVVTVPSSSLGTQTYICNVNHKPSNTKVDKKVEPKSCDGGGGSGGGGSQAVVTQEPSLTVSPGGTVTLTCGSSTGAVTTSNYANWVQEKPGQAFRGLIGGTNKRAPGTPARFSGSLLGGKAALTLSGAQPEDEAEYYCALWYSNLWVFGGGTKLTVLSSASTKGPSVFPLAPSSKSTSGGTAALGCLVKDYFPEPVTVSWNSGALTSGVHTFPAVLQSSGLYSLSSVVTVPSSSLGTQTYICNVNHKPSNTKVDKKVEPKSCDKTHTCPPCPAPEAAGGPSVFLFPPKPKDTLMISRTPEVTCVVVDVSHEDPEVKFNWYVDGVEVHNAKTKPREEQYNSTYRVVSVLTVLHQDWLNGKEYKCKVSNKALGAPIEKTISKAKGQPREPQVYVLPPSREEMTKNQVSLLCLVKGFYPSDIAVEWESNGQPENNYLTWPPVLDSDGSFFLYSKLTVDKSRWQQGNVFSCSVMHEALHNHYTQKSLSLSPG
light 1: EIVLTQSPGTLSLSPGERATLSCRASQSVSSYYLAWYQQKPGQAPRLLISGAGSRATGIPDRFSGSGSGTDFTLTISRLEPEDFAVYYCQQYGYPPDFTFGQGTKVEIKRTVAAPSVAIFPPSDERLKSGTASVVCVLNNFYPREAKVQWKVDNALQSGNSQESVTEQDSKDSTYSLSSRLTLSKADYEKHKVYACEVTHQGLSSPVTKSFNRGEC
light 2: B1 light 2
notes: as for B1
B5: 83A10-TCBcv (bispecific antibody, human IgG1, kappa, L234A L235A)
heavy 1: not shown
heavy 2: not shown
light 1: not shown
light 2: B1 light 2

Columns and labels:
[1] = target: T1, BCMA on cells (JEKO cells, plasmablasts); assay: cell-based or functional assay
[2] = target: T4, Human CD3ED, TPP401 (human, UniProt P07766 23-126; P04234 22-105); assay: SPR (Biacore T200), single-cycle kinetics, antibody captured on anti-human IgG, antigen injected; sensorgram of sample stored at pH 6, 40 C compared with the non-stressed standard
T4 construct: 'CD3ED' is read here as the CD3 epsilon/delta pair; also called Antigen 2
T4 sequence (P07766 23-126, chain 1 of 2): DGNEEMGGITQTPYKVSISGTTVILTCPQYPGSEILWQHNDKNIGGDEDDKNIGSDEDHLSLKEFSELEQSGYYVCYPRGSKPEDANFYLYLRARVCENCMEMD
T4 sequence (P04234 22-105, chain 2 of 2): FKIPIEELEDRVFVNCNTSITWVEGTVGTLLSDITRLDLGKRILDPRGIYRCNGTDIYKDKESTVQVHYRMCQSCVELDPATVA
Protocol: (§1) SPR experiments were performed using a Biacore T200 system (GE Healthcare, Uppsala, Sweden) with analysis and sample compartment temperatures set at 25° C. and 7° C. respectively.
(§2) Anti-Human IgG (from anti-human IgG Capture Kit) was amine coupled to the surface of a CM5 chip according to the manufacturer's instructions. Molecule bispecific antibodies diluted to 1 μg/mL in running buffer were captured on the chip surface in a 60 s injection. Following the single-cycle kinetics procedure, antigen was next injected five times (30 s per injection) at incrementally increasing concentrations at a flow rate of 30 μL/min. Antigen concentrations ranged from 0.08 to 50 nM for BCMA and between 12.7 to 1000 nM for CD3. A 300 s dissociation time was added after the last antigen injection. Following each experiment, all flow cells were regenerated using a 30 s injection of 3M MgCl₂.
(§3) Prior to analysis, data were double referenced by first subtracting data from a reference flow cell and then subtracting a blank cycle where buffer was injected instead of antigen. The sensorgram comparison analysis was implemented using a Biacore T200 (software version 3.0). All data were normalized with respect to the response where 100% reflects the maximum binding obtained during injection and 0% reflects the baseline. Average and ±3 standard deviation (SD) sensorgrams were calculated from ten or more independent sensorgrams of each molecule's non-stressed material (standard). For quantitation of binding similarities of the stressed samples against the corresponding non-stressed standard, sample sensorgrams were co-evaluated with the sensorgrams of the standard. The degree of similarity was calculated based on how many sample data points fell inside or outside the ±3 standard deviation limits according to Equation 2, where SSQ is the sum of squares (Karlsson, R, Pol, E., and Frostell, A. (2016); Analytical Biochemistry 502, 53-63).

[3] = target: T2, Human BCMA, TPP208; assay: as above
Protocol: as §1, §2, §3

[4] = target: T4, Human CD3ED, TPP401; assay: SPR (Biacore T200), single-cycle kinetics, antibody captured on anti-human IgG, antigen injected; sensorgram of sample stored at pH 8, 40 C compared with the non-stressed standard
Protocol: as §1, §2, §3

[5] = target: T2, Human BCMA, TPP208; assay: as above
Protocol: as §1, §2, §3

[6] = target: T4, Human CD3ED, TPP401; assay: SPR (Biacore T200), single-cycle kinetics, antibody captured on anti-human IgG, antigen injected; sensorgram of sample stored at pH 4, 40 C compared with the non-stressed standard
Protocol: as §1, §2, §3

[7] = target: T2, Human BCMA, TPP208; assay: as above
Protocol: as §1, §2, §3

[8] = target: T3, BCMA
[9] = target: T1, BCMA on cells (JEKO cells, plasmablasts); assay: cell-based or functional assay; remark: listed apart in the source
[10] = target: T1, BCMA on cells (JEKO cells, plasmablasts); assay: cell-based or functional assay; remark: listed apart in the source
[11] = target: T4, Human CD3ED, TPP401; assay: SPR (Biacore T200), single-cycle kinetics, antibody captured on anti-human IgG, antigen injected; sensorgram of sample stored at pH 6 with tert-butyl peroxide, 40 C compared with the non-stressed standard
Protocol: as §1, §2, §3

[12] = target: T2, Human BCMA, TPP208; assay: as above
Protocol: as §1, §2, §3

[13] = target: T1, BCMA on cells (JEKO cells, plasmablasts); assay: cell-based or functional assay; remark: listed apart in the source
[14] = target: T1, BCMA on cells (JEKO cells, plasmablasts); assay: cell-based or functional assay; remark: listed apart in the source

Binder | EC50 PB killing (nM), AAV-1 (n = 1) [1] [nM] | pH 6 SPR % similarity-CD3 [2] [%] | pH 6 SPR % similarity-BCMA [3] [%] | pH 8 SPR % similarity-CD3 [4] [%] | pH 8 SPR % similarity-BCMA [5] [%] | pH 4 SPR % similarity-CD3 [6] [%] | pH 4 SPR % similarity-BCMA [7] [%] | Kd [8] [nM] | EC50 for BM plasmablast killing (nM), bone marrow mononuclear cells, 24 h [9] [nM] | EC50 for JEKO cell killing (nM), T cell-mediated, annexin V, 20 h, T:E 1:2 [10] [nM] | pH 6-TBP SPR % similarity-CD3 [11] [%] | pH 6-TBP SPR % similarity-BCMA [12] [%] | further results
B1 | 0.236 | 100 | 100 | 71.5 | 99.9 | 99.9 | 100 | 1.1 | 0.266 | 5.72 | 75.3 | 82.5 | EC50 PB killing (nM), healthy volunteers (n = 2) [1]: 0.257 nM
B2 | 0.01 |  |  |  |  |  |  | 0.14 | 0.0201 | 2.79 |  |  | EC50 PB killing (nM), healthy volunteers (n = 6) [1]: 0.029 nM; Plasmablast depletion EC50 (nM), PBMC from healthy volunteers, soluble BCMA 0 ng/ml [13]: 0.005 nM; Plasmablast depletion EC50 (nM), PBMC from healthy volunteers, soluble BCMA 16.8 ng/ml [13]: 0.025 nM; Plasmablast depletion EC50 (nM), PBMC from healthy volunteers, soluble BCMA 33.6 ng/ml [13]: 0.13 nM; Plasmablast depletion EC50 (nM), PBMC from healthy volunteers, soluble BCMA 67.6 ng/ml [13]: 0.32 nM; EC50 for plasmablast killing in AAV, PBMC, 24 h [14]: 0.007 nM; EC50 for plasmablast killing in RA, PBMC, 24 h [14]: 0.001 nM; EC50 for plasmablast killing in SLE (n=5), PBMC, 24 h [14]: 0.01 nM; EC50 for plasmablast killing in healthy volunteers (n=12), PBMC, 24 h [14]: 0.005 nM
B3 |  | 99.5 | 99.8 | 59.5 | 95.8 | 99.6 | 84.8 |  |  |  | 58.5 | 71.9 | 
B4 | 0.003 | 100 | 99.4 | 70.1 | 95.7 | 100 | 100 | 0.06 | 0.00281 | 0.12 | 72.3 | 54 | EC50 PB killing (nM), healthy volunteers (n = 3) [1]: 0.007 nM
B5 |  | 99.9 | 100 | 57.5 | 90.8 | 100 | 99.4 |  |  |  | 59.7 | 72 | 
